Results reported in the supplement of paper PMC9732359.
± gives the uncertainty stated by the source.

Assay: protein stability index of a GFP-peptide fusion (yeast GPS) (PSI 1-4); higher = more stable; sorted into four equal gates, so the index is relative within each strain
Settings: doa10∆
In short: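 Tiled yeast protein peptides of 17 residues were each joined downstream of GFP, on plasmids that also express Cherry. The pooled library was maintained in yeast, and mid-log cultures in leucine-free medium were sorted into four equal gates on the GFP/Cherry ratio. Plasmids from every gate were amplified by PCR and sequenced on Illumina, with barcodes linking reads to strains. The protein stability index of a peptide is its gate-number-weighted read frequency summed over the gates.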

Sequence	protein stability index
TDIKDTLTKISMLFKTS [MCD1]	2.87 ± 0.15
TDLEKKHLWDQKSLAAL [RPC17]	2.86 ± 0.11

Same assay, conditions: pdr5∆

Sequence	protein stability index
SLLTLVGSVTYQVDEDV [YJL039C/NUP192]	1.67 ± 0.13
SLNLGIGIVEIAHENEQ [SRB8]	2.07 ± 0.084
SLNPALQEKISTELNNK [SWI1]	3.05 ± 0.097
SLPEFFTNRIPSKTPEV [SWI3]	2.53 ± 0.054
SLPEGLLKSLWDYVKKN [TAF14]	2.02 ± 0.079
SLPLIVFLRNRLKYALN [RPS4A]	1.58 ± 0.092
SLYAYCHSKLRGQQVEN [GRR1]	2.52 ± 0.092
SLYKVSFLEKPKFAIQD [YMR129W/POM152]	2.68 ± 0.12
SMHLLKDWTDTFVYILE [SRB8]	2.95 ± 0.06
SMNNDFQQQQQQQQQQQ [PGD1]	2.9 ± 0.16
SNDEKQKAQDVDVSMQD [RPN13]	3.27 ± 0.064
SNDIIDKPYLLRIVTHL [YDL116W/NUP84]	1.99 ± 0.09
SNIDIRVRVTGGGHVSQ [RPS16A]	2.31 ± 0.063
SNLSQNVVPYHRNTSDY [SWI1]	3.07 ± 0.086
SNNDEDDKDCTIKISTN [RGR1]	3.13 ± 0.062
SNRLLMDVDQFDFLDDG [YJR042W/NUP85]	1.37 ± 0.15
SNTSTLKNMLYVLSTAV [BRR2]	1.53 ± 0.09
SNVAAIFKGIGGNFKDL [GAL11]	2.76 ± 0.079
SPEQIDASPDSLEALID [YCS4]	2.88 ± 0.049
SPERFATLGIDPPKGIL [RPT1]	2.76 ± 0.058
SPFRPLEKTSRILNFFD [YMR153W/NUP53]	3.22 ± 0.093
SPFSITFSVYHESTSRT [YMR129W/POM152]	2.55 ± 0.062
SPHGLINLNVDDDILII [SRB4]	3.2 ± 0.075
SPLQSSKSKQSFTQGEL [YMR129W/POM152]	2.8 ± 0.061
SPNRLRVRTDDSVLLNR [YML031W/NDC1]	3.25 ± 0.21

Sequence	protein stability index
SPRVEKRSFSSTLKSFF [YOR098C/NUP1]	2 ± 0.046
SPTYSPTSPAYSPTSPS [RPO21]	3.05 ± 0.042
SQEMVPRYFSEAINGFK [SIR3]	3.01 ± 0.088
SQISKAEMEADSLASEL [SMC4]	3.31 ± 0.16
SQLGGNKTVNEAAKPSL [YJL041W/NSP1]	3.09 ± 0.079
SQQLLEILVTELTAQGY [RPN2]	2.19 ± 0.079
SQTPKVEKTEKPKKPKG [RPS30A]	3.12 ± 0.07
SQTTTNDSKEESTTEAT [YLR335W/NUP2]	2.83 ± 0.21
SQVEDFTRIFLPIYDSL [SIR3]	2.64 ± 0.045
SQVYAIRQAIAKGLVAY [RPS16A]	2.35 ± 0.071
SRIVEIFALCIYNSTDS [YML103C/NUP188]	1.21 ± 0.086
SRKRNEEEDAKNPLFSY [RPL31A]	2.91 ± 0.059
SRLCTPIPVQGEIEIKP [RPN13]	2.58 ± 0.067
SRNNTLNVTPSKRPQLG [SIR4]	2.97 ± 0.093
SRRFKNGFQTGSAKATS [RPL37B]	3.12 ± 0.087
SRSSSKNVNIEDITEPK [ESC2]	3 ± 0.082
SRTATWLKNKFAEENIT [BRR2]	1.73 ± 0.037
SRTGPVFDLCWNSLMYA [RRP43]	2.45 ± 0.048
SSAADITMESVHEWEVS [PRP8]	3.32 ± 0.055
SSDAFEKLKVNMEKEKD [YIL149C/MLP2]	3.19 ± 0.094
SSDDLQNCWSLINDSYI [SSN8]	2.03 ± 0.081
SSDGAYTEQFQHYKNNS [SSN2]	3.03 ± 0.056
SSEALEAARICANKYMT [RPL10]	1.82 ± 0.16
SSEIDRENVKSKDEPVS [SIR4]	3.33 ± 0.12
SSEIKIYYNELQNKPDA [SIR4]	3.3 ± 0.14

Sequence	protein stability index
SSFYINHASMDVYNREL [BRR2]	2.96 ± 0.1
SSGAGTVKLYLPEILNV [ECM29]	1.72 ± 0.055
SSGVLSSNIAGTNPLSS [SSN2]	2.9 ± 0.12
SSIHAIGSIKEDYLGAI [RPB7]	2.74 ± 0.064
SSIHWNNWFSLPGDMLA [SIN4]	1.88 ± 0.055
SSKLQLTKKYSFKIFVD [RRP42]	1.76 ± 0.062
SSKNETSKPVFSFGAAT [YLR335W/NUP2]	3.08 ± 0.07
SSLIPHCITSITLALAD [MTR3]	1.32 ± 0.069
SSLPPGEILLPDIADIP [SNF5]	3.25 ± 0.063
SSLRKNASGNKRSGVIE [ITC1]	2.22 ± 0.15
SSQKDGNDFKFNYQGDE [REC8]	3.45 ± 0.072
SSRFKHRQEIFKDSPMD [GAL11]	3.11 ± 0.066
SSRPNVNTTRRFQYSDD [YMR129W/POM152]	3.16 ± 0.11
SSSAQQTKSNGTAGGNT [YJL041W/NSP1]	3.46 ± 0.16
SSSGNTWSLILNECLKT [YML031W/NDC1]	1.73 ± 0.084
SSTGGGLFGNKPALGSL [YGR119C/NUP57]	3.44 ± 0.088
SSTTGMSYVVRILSTLD [RPT3]	2.42 ± 0.084
SSYMGKHWTEKSLHEMN [PRP28]	3.14 ± 0.23
STAFQNTPLSLPTRGTL [COR1]	2.38 ± 0.038
STDNEAITISNSIDINY [SMC1]	2.93 ± 0.057
STFQTRRRRLKKVEEEE [RPB4]	3.52 ± 0.12
STGGKAPRKQLASKAAR [HHT1]	3.35 ± 0.21
STKKDTVQLTFLIDVLK [YCG1]	2.72 ± 0.068
STSFKNPRRLEIKDGRS [YMR153W/NUP53]	3.06 ± 0.09
STSIQYHGISKNDNIKK [POP6]	2.9 ± 0.055

Sequence	protein stability index
STTASGTTATGTGLFGQ [YGR119C/NUP57]	3.35 ± 0.067
STVQTPITASMAAALPN [PGD1]	1.55 ± 0.099
SVGVIINKMVGNRYLEK [RPL21A]	3.35 ± 0.13
SVIVSQFCAFDSSSNTY [SIN4]	2.26 ± 0.073
SVKDYRPAEETEAQAEP [RPS3]	3.07 ± 0.068
SVLRDTLVAQNLKQANN [SMC4]	2.53 ± 0.06
SVNIAFAISMGYLFKVS [ECM29]	2.84 ± 0.13
SVNPSNKPIKRMLSSIL [SWP82]	2.99 ± 0.044
SVREINLYMLVTTCVYL [SSN8]	1.67 ± 0.047
SVRLQVTKILPHLIIQN [IRR1]	1.7 ± 0.064
SVRRSGALDVEGLCIVA [RRP45]	3.06 ± 0.11
SYAGISTDKLVQCHGSF [SIR2]	2.76 ± 0.11
SYESLKKRKIHNGREGS [MCD1]	1.91 ± 0.041
SYEYYNIKHKHTSIRET [SMC2]	1.83 ± 0.066
SYKMIQLDAYGEKKVGS [SWP82]	3.37 ± 0.093
TAAANTEKLSNGFSFTK [YOR098C/NUP1]	2.48 ± 0.057
TAAIDSVVSQIEKGSTF [FAS1]	2.95 ± 0.078
TAGVGSTPNFGGNSNKS [SIN4]	3.31 ± 0.21
TAKPAFSFGAKPAEKNN [YJL041W/NSP1]	3.35 ± 0.12
TALKQYEKELMGDELTR [RPN6]	3.54 ± 0.15
TAPSSERRVLLSAPLSK [RPL26B]	2.4 ± 0.044
TATGAASKSGKLTQKLV [CYT1]	1.62 ± 0.078
TATIINNESSDDMDIDE [PCI8]	3.17 ± 0.07
TDAYLDQYLWYEADQRK [PRP8]	3.21 ± 0.17
TDDQGRVIDDNNRRRSR [SIR3]	3.05 ± 0.24
